Results reported in patent US7167802B2, “Methods for identifying agents that interact with MAP kinase activated protein kinase 2” (Wyeth, priority 2002, dated 2007).
Read-outs that look alike come from different tables or passages of the source.

Key:
MK2 = molecular target: T1, MK2 (Homo sapiens, UniProt P49137); assay: MK2 kinase kinetics, continuous pyruvate kinase/lactate dehydrogenase coupled assay at 340 nm; assay type: biochemical; conditions: for Km: 25° C.
T1 construct: made in house; host or cells: E. coli BL21 (DE3)
Method: Activation of MK2 Constructs. The MK2 constructs 41–400 and 41–364 were activated by the phosphorylation of the constructs by p38 MAP kinase. The activation was done in 20 mM HEPES (pH 7.5), 10 mM MgCl2, 2 mM DTT, 0.50 mM ATP, 0.2 mg/ml MK2 and 0.125 μg activated p38. The reaction was incubated at 25° C. for 1–2 hour then placed on ice to be used for kinetic analysis.
Kinase Kinetics. The rate of MK2 kinase was characterized in 20 mM HEPES (pH 7.5), 10 mM MgCl2, 2 mM DTT and 100 mM NaCl. The kinetics was followed by linking the turnover of ATP is to the turnover of NADH to NAD. This was followed spectrophotometrically at 340 nm. The continuos assay contained 20 units pyruvate kinase, 30 units lactate dehydrogenase, 0.25 mM NADH, 2 mM PEP and 1.6 to 8.0 μg/mL MK2. For determining the apparent Km for ATP, the ATP concentration was varied from 0.005 to 0.25 mM while the peptide was held constant at 0.2 mM for activated MK-2 or 1.0 mM for the constitutively active form of MK-2 (41–364). For determining the apparent Km for LSP-1, the LSP-1 concentration was varied from 0.01 to 0.5 mM while ATP was held constant at 2 mM. The kinetic analysis was carried out in a 96-well plate at 25° C., on a Molecular Devices spectrophotometer.
Substrate Kinetics. Peptide LSP, based on the protein substrate of MK-2 lymphocyte/leukocyte specific protein, was used for the investigation of the kinetic mechanism for the enzyme MK-2. Data was fit to equation 1 for normal Michaelis-Menten kinetics. v=Vmax[S]/Km+[S] (1) where [S] is the substrate, Vmax is the maximum enzyme velocity, Km is the Michaelis constant.

[1] = tested on: LPS-induced cytokine synthesis in human monocytes; conditions: cited from earlier work
[2] = tested on: MAP kinase activated protein kinase 2 (MK2); conditions: cited from earlier work
[3] = p38 + (construct activated by p38 phosphorylation)
[4] = p38 + (construct activated by p38 phosphorylation), ATP held at 2 mM, read-out: Apparent Km (LSP-1)
[5] = p38 activated / phosphorylated by p38

T1 sequence (P49137 with tags, fused parts or gaps): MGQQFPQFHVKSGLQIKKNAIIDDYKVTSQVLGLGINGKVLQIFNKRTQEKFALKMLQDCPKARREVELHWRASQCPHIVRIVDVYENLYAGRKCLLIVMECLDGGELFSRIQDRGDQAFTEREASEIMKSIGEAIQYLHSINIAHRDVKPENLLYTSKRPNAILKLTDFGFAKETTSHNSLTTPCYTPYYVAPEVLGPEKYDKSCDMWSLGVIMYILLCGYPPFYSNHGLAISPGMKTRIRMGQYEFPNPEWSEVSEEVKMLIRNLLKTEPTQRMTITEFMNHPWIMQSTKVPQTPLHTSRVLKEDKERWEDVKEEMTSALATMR

| binding of the peptide substrate LSP-1, fold weaker than to p38 activated MK2 41-400 (MK2; unphosphorylated MK2 41-364 vs p38 activated MK2 41-400) | Compound | Vmax (MK2; not phosphorylated) | Vmax (MK2; [3]) | Km (MK2; [4]) | Vmax (MK2; [5]) | Vmax (MK2; p38 − (not phosphorylated)) | Km (MK2; p38 − (not phosphorylated), ATP held at 2 mM, read-out: Apparent Km (LSP-1)) | Km (MK2; p38 − (not phosphorylated), LSP-1 peptide held at 1.0 mM, listed as MK2 41-364, read-out: Apparent Km (ATP)) | Km (MK2; p38 − (not phosphorylated), LSP-1 peptide held at 1.0 mM, read-out: Apparent Km (ATP)) | Km for LSP-1 peptide substrate, fold higher compared to p38 phosphorylated MK2 41-400 (MK2; unphosphorylated MK2 41-364) | Vmax, fold lower compared to p38 phosphorylated MK2 41-400 (MK2; unphosphorylated MK2 41-364) | Km (MK2; p38 + (construct activated by p38 phosphorylation), LSP-1 peptide held at 0.2 mM, listed as MK2 41-400, read-out: Apparent Km (ATP)) | Km (MK2; p38 + (construct activated by p38 phosphorylation), LSP-1 peptide held at 0.2 mM, read-out: Apparent Km (ATP)) | LPS-induced cytokine synthesis [1] | activation of MK2 [2] |
| --- | --- | --- | --- | --- | --- | --- | --- | --- | --- | --- | --- | --- | --- | --- | --- |
| more than 40 fold | 41-364: constitutively active MK2 polypeptide, residues 41–364, in which a portion of the C-terminal autoinhibitory domain was removed [Construct 41-364] | 0.076 µmol/min/mg | 11 + 14 μmole/min/mg | 20 µM | 11 µmol/min/mg | 0.076 + 0.004 μmole/min/mg | 584 µM | 7 µM | 15 µM | 45 fold | 100 fold | – | – | – | – |
| – | 41-400: MK2 construct, amino acid residues 41–400, lacking the first 40 residues of the proline rich domain [Construct 41-400] | – | 8.9 + 0.1 μmole/min/mg | 13 µM | 8.9 µmol/min/mg | no activity | – | – | – | – | – | 15 µM | 7 µM | – | – |
| – | C[S+]([O-])c1ccc(-c2nc(-c3ccncc3)c(-c3ccc(F)cc3)[nH]2)cc1 (stereo not shown) [SB203580] | – | – | – | – | – | – | – | – | – | – | – | – | inhibits LPS-induced cytokine synthesis | prevents the activation |
